Paper PMC10658926, “Plasmodium vivax merozoite-specific thrombospondin-related anonymous protein (PvMTRAP) interacts with human CD36, suggesting a novel ligand–receptor interaction for reticulocyte invasion” (Parasites & Vectors, 2023)

Assays:
[1] = molecular target: human CD36 (cluster of differentiation 36), ectodomain, Fc-fusion (human); experiment: BLI; Octet RED96; Fc-tagged receptor immobilised on protein G (ProG) biosensor, twofold serial dilution of His-tagged parasite ligand in HBS; KD from the response in equilibrium against concentration
[2] = molecular target: T1, Plasmodium vivax Duffy binding protein region II (PvDBP-RII), residues 194 to 521, His-tagged (Plasmodium vivax, UniProt P22290 194-521, biotin (biotinylated with co-transfected secreted E. coli BirA and D-biotin, for the ELISA bait)); experiment: as above; conditions: both partners purified
T1 construct: source: HEK293E, transfected, culture supernatant, purified (Ni-NTA agarose); not shown: His, C-terminal, kept

| Molecule | Kd [1] [nM] | Kd [2] [nM] |
| --- | --- | --- |
| Plasmodium vivax merozoite-specific thrombospondin-related anonymous protein (PvMTRAP), full-length ectodomain, His-tagged (domain or fragment) | 37 | – |
| Duffy antigen receptor for chemokines (DARC, CD234), residues 1 to 63, Fc-fusion (Fc fusion, human, UniProt Q16570 1-63, looked up, Duffy antigen receptor for chemokines (CD234), human, residues 1 to 63; also called human DARC; source: HEK293E, transfected, culture supernatant, purified (HiTrap Protein G HP); not shown: Fc, C-terminal, kept) MGNCLHRAELSPSTENSSQLDFEDVWNSSYGVNDSFPDGDYGANLEAAAPCHSCNLLDDSALP | – | 7.7 |
